Test results published in US6225121.

Test system: T1, Minos transposase (Minos-2) (Drosophila hydei)
T1 sequence: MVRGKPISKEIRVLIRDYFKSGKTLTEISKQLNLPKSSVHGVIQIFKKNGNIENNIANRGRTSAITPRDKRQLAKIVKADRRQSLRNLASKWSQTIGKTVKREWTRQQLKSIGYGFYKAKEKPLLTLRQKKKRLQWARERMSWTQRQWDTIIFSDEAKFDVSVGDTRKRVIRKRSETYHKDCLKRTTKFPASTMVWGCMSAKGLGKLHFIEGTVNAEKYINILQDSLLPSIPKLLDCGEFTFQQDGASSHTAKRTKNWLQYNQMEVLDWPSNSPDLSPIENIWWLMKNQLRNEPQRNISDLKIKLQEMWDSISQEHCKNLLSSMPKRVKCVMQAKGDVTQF
Test: cell_activity
Details: HeLa stable transfectants vs transposon alone, experiment 1 (18-fold and 14.5-fold in experiments 2 and 3); source Minos copy of helper not stated; binding not …

“Minos transposon with both terminal inverted repeats, neo cargo (pMiLRneo)” showed an activity of 19 fold.
